Results taken from paper PMC8376927 (2021).
Non-standard residues stand in square brackets, D forms with d. No end group written: not given here. *: point of attachment. 5FAM = O=C1OC2(c3ccc(O)cc3Oc3cc(O)ccc32)c2ccc(C(=O)*)cc21; pS = N[C@@H](COP(=O)(O)O)C(=O)O

Target: T1, Human 14-3-3γ WT (human, UniProt P61981 1-247)
T1 chain: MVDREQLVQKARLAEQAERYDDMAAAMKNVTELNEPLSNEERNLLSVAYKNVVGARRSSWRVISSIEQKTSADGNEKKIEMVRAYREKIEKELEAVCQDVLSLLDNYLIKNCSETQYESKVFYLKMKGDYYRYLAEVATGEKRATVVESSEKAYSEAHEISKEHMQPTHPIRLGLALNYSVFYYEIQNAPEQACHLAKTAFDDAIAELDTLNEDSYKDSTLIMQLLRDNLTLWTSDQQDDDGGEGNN
Assay: FP

## 5FAM-RRRWKL[pS]FSIV [FAM-aidDAPK-pS318 peptide (FAM-RRRWKLpSFSIV)]
  Kd: 48 µM
